Data as given in the domain aggregation screens of Martell et al. (2025).

Test: soluble fraction after stress (log2 fold change); higher = more stays soluble; pooled small domains, quantitative proteomics
Conditions: stress: 50 degC
Outline: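 The stress applied to every library was 50°C. These custom libraries of small protein domains were pooled and measured at high throughput with quantitative proteomics as the read-out. Aggregation propensity is expressed as the base-two logarithm of the fold change in how much of each protein remains soluble. The higher the value, the more of that protein stays in solution.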

HMIDAHTALLAKRLEAKGMLPLTDKSSAEEIYAEFGISKKAFKKALGALYKERLVRIGEDGVVWI
soluble fraction (log2): -1.27

HMSPRQVTAVRSGSPMPVLPGEDWRLYDASGALVARGSGAAPIPKSTGLLRLNSEGLDGLADRWIWVL
soluble fraction (log2): -0.255

HMTGRHEEAIQELKRTLELHPQKPKIFLLLGVSYLRLNNLKKAVEAFNTVLLLQPKNQKALTMLKEIKKR
soluble fraction (log2): 0.0384

HMGLQEADKQDRIARMKELISFLNEAAKAYYQEGREIVSNLEYDKAYDALLSLEKESGVVLSGSPSQNVG
soluble fraction (log2): 0.147

HMVPVQLTPRELQVARLAAHGASSPEIAAELRVSRRTVDNQLGRVYAKLGIAGRAELAAALSRLPVSV
soluble fraction (log2): -0.0808

HMNQDIIEIGNNIQKIRKKNGISQSVLAEKIDVAGNSIYRMEGATTVMGVDKLINIADALNTSPMDILPAR
soluble fraction (log2): 0.13

HMRIETLESLANRLAYKAYRTGRKVELEPMNPFERRVIHTALQNSKYATTESEGEDMNRHIVIVPKEGG
soluble fraction (log2): -0.0606

HMTMVLPDAARDKLKAIGLSIEHVEPSPVKDIFTVISREGVSYVSKDGDYIFTGSLFHVKGKDVVNTTEQA
soluble fraction (log2): 0.128

HMGTRHPLPYAFAKAHTVLLEDDGDRLLLHAAENSGPSALGEILRLYDVDALERETASTLANRIAVAYAG
soluble fraction (log2): 0.00932

HMDSSSYSAKVGTLIQETRQARGMTQAQLAQALGTSQSAINRIEKGGQNISLDMLNRISEVLSSQIVTLNP
soluble fraction (log2): -0.0626

HMRTIVSELNDIKGISDASAKKLLIRYGSFEAVREAVMKHEEEFELDMGKRITGALTRYFYEE
soluble fraction (log2): -1.61

HMESSREVSFSEFMKQIDSGRVSSVKLDGETIYVRNSDGTSYKVIQPLGTDLIGVLRKSDIDVQAIKQ
soluble fraction (log2): -0.003

HMLPVDALFAQHPALIVTLGQTEKLKHGAAIRDWHFADGTYRVYSETGEFLLLGTVKGQILTTVKSFFE
soluble fraction (log2): -2.08

HMVISLREINLIGVYGRPNARRALVRLSNGRYVRVEVGSDLDGGKVTAIGDEALNFVKRGRTYAIQLPA
soluble fraction (log2): -1.55

HMYEDNERNLYSVVINFLNEHKIKISREAINLVINRSSGDKHNLKQELNKILNYSFSNKNITYETIEKLSN
soluble fraction (log2): -0.585

HMENVIYGINGPVVTVRNSRSFSMMEMVFVGNERLVGEVIGITDKITTIQVYEETTGLRPGEPVYGTGSPM
soluble fraction (log2): -3.97

HMSENPLTSREIEIVQLLANGKTTKSIAEELHLSNGTIRNYVSIVLDKLNVSNRIEAIRKALDKGWL
soluble fraction (log2): -1.29

HMASVGTHIKRLRAAKRMTQEELAEQLHVTRQAVSAWETGKALPDVEMLERIAAALDADVTEVIYGA
soluble fraction (log2): 0.0402

HMPAPMISIQLNGEPRNVQPGISIAALVREIGLEPAKVAVERNREIVPRSTLGDVLIEAGDQLEIVHFVG
soluble fraction (log2): 0.159

HMDSSLVWVDYLLGSKLTKLNSSNELTGPGASAKTIGAFLGENKQSFDLYIESVHNARDTYSDILTHGT
soluble fraction (log2): -0.0043

HMDRERFIKLGREIARAAFENVGKKATDKVLNSAAKKLRLEDGDEVLARLGSAEIEARSVVQAVYPDLI
soluble fraction (log2): 0.452

HMDNFQFIGYSQQQGQIAVAWIKSLDNGRLVRVEVSDSLEGWRVSDISAQGVNLTKGQQWLMLKRL
soluble fraction (log2): -1.73

HMAIPEVDPAKQGVSATQLAALDALAHRNAGEGRVAGMVNVVIRNGEIVYYKATGPRHIDGGAPLKSTDLF
soluble fraction (log2): -0.153

HMLEKDIGKAITILRKSYQLSISAFSMRTGYSRVHISEVESGKRKATDELISVIRNVFHLDSNWPF
soluble fraction (log2): -1.47

HMLRTEYLTVNYAKASEVAELVTASGFLSSRGSITVDERTNTLLLQDTATNIDEVRFMLEQLD
soluble fraction (log2): -0.443

HMPVGVPGVVYNTDSLNVRKGAGTNYDIVSKLKRGSVIEVLEQTAVDGTVWGRIAEGWVNMEYVSL
soluble fraction (log2): -0.43

HMATHGRRAVIELREKIVSGELPGGTRLFEVSLAETLDISRTPVREALSRLAEEGLLDRLPNGGFVVRR
soluble fraction (log2): -0.503

HMSFNLSETKKLILEEIQKGVSSVTQIAATAGISKGMTYNHLRELKLMGYIADGDSGYVITDAGKIAS
soluble fraction (log2): -0.04

HMKFNRPMSEILQEWENKLGTTSDAELAGLIGVVTMTINRWRKNETKPDLSALNRYDRIVNLVVNNIKQL
soluble fraction (log2): -0.432

HMQEEFVAPDVKDGAIVLHKAFGEGTVTKIDKAQKHIRVTFGVGEKTFIFPDAFKQGFLRMKG
soluble fraction (log2): 0.348

HMTKEEIVVNWLPRYTKRNLEDFGEYILLTNFNKYVEIFAEKFNVPILGRDANMISASAEGITIIN
soluble fraction (log2): -0.191

HMVADLSGVGDKDIIVDQFIYHEVLPKETIYSIVKSFNVTSEDLNKNNPFLRANGLRIGQVIRIPLKI
soluble fraction (log2): -1.08

HMDPVQLEVIKKLNLLNAQKPKDIYALRDVLSEMFPQSDIRLLLKELLDKGYIYWNGHEVIYSHEMF
soluble fraction (log2): -0.217

HMITTWAGKATTDVYGRVDANPKADAVLVIKTGWTVQVVGSKTAPDGGTWYKLIYNGKTMYANSKFIVK
soluble fraction (log2): -1.16

HMNEKLNEYLNQVKAYLNTSDNKEDIIKELEAVVLEKAEKKYGQITDESISKILSEFGSPAEVAKEYS
soluble fraction (log2): 0.129

HMSQNISSTKLIPENIKIGMSVFVIPLQQKGIVQSLPNRSKEVLVQIGNAKINVKINNLKLIED
soluble fraction (log2): 0.295

HMNLLPAGTYKLKDLVTAEDEEIGAKKGDVVIAHEDTPPSDRVLGVDIFPVIHKNTSKKIYVSLEDI
soluble fraction (log2): 0.46

HMQTASVRFADGQLEVKQKGLQRVSVYSLNGMTVANKAVQGQDYVTISLPRAAYIVKITTQNGSFTKVI
soluble fraction (log2): -0.207

HMSLSEGVSADVVADVQARLMELGYMDEDDPDGNFSESTRIAVEHFQQQAGLPVTGTVDKATLDALNSPD
soluble fraction (log2): 0.0669

HMTETFVLNLRQPIAAAPVLPGYRVARTDEQTLEVEVSKDQNLNEIFTALSALGVEVLSMRNK
soluble fraction (log2): -0.12

HMDYSWNFFIGFSVVDKVAGNLGTIEEIDDKTINTLFLVKNDDEDLIIPATEDFVEKIDAKKRILYLNLPE
soluble fraction (log2): -1.56

HMPLKLIDVYLGRHGKKRYDVFKETGLSQQTLASANGKPAAALTGRILQAIGRTVGETPGRVLDEMLMIEQ
soluble fraction (log2): -0.691

HMGGLAVQLVHAMTDQIRSGRLKAGDKLPTEAAIMKDFGVSRTVVREAISRLQASGWVDTRHGIGTFVLHQ
soluble fraction (log2): -1.3

HMANKQLQEKLKNYISENGSLSSAAKAIGLSPATLSTYLKDKYEGNVANVETRLTEIFETVEAANNLL
soluble fraction (log2): -0.258

HMGLLGIYPNPVEGGSVRLLSDADLFGSRFELYDQSGKLVLNGFVTEGNFVSVKGISSGLYISVSYT
soluble fraction (log2): 0.0024

HMVNIPEIAKKFGKSTSEVFEQIQIGEKHEMEHTNDPKKARKIALDHLSDDMDYYKKLKKLG
soluble fraction (log2): 0.27

HMNQDMINFDKLSVRLKNVLIENNLKTVDSLLNYPAEEFEYLTNLGEKTLQELLTYRNELAASNNIQ
soluble fraction (log2): -0.289

HMEYNLTLEELNRDLYIRGEIWNVGDVVKTTDGDEGTIIRKGTNYVVFEDLRRVWLHNLEEVK
soluble fraction (log2): -1.85

HMAAPVGLTQRQMEVAALVADGLTNAEIGRRLHITERSAESHLERVRIRLGFRSRAQVAAWFVTQE
soluble fraction (log2): -3.5

HMSNSWSYSEFMKAVESGQVESVTISGQSIKGTSRGGQAFESVLPAFDDKLMDTLLVNDVEVIGEKP
soluble fraction (log2): -0.00195

HMGLGDLEVVDSIGKIRRDGQQMILAFGRHKGRDVQEVYNEDPRYINWLLSPKGIEDENGRGKVRDYLGIN
soluble fraction (log2): 0.163

HMTDEEKENLREKMLEAGFPLLKQYGMTHTSVAKITQAAGIAVGTFYSFWKNKEAYMADLIGYHRR
soluble fraction (log2): -0.818

HMKEILVGVEPLSKKQIIIKKGIKGRSDYIIFEKKNYGLPENLKPEEVSIEIALKIIDEKKKRKA
soluble fraction (log2): -1.23

HMQFLGKVTVTHARQANLRAQPSMDAAIVGKVNPGEVYNVVSIPKTSWYEIQLQNGKTVFIAAGMVSFRM
soluble fraction (log2): -0.557

HMPSREDFAYDSIKEAILSGELLPNQKISLSDLANKLGISIIPVNSAVGRLVAEGLVRQDPHHSPYVV
soluble fraction (log2): 0.345

HMGVPTEQQSLIGKSGIAATDLRPSGKVEIDGKRYDAVSNYAGFIAKGTPISVVRYETGQIYVE
soluble fraction (log2): 0.0415

HMLHIKKGDTVIVNAGESKGQQGKVLEVLVGKERAIVEGVNMVSKHTKPNAKNPQGGIVKKEAPIHISNLQ
soluble fraction (log2): 0.179

HMNSSHRLIGLDPGLRVTGWGIVDAIGTKLVHVANGSVKSQQNAPLATRLLELENGLEEVFDNWQPDFA
soluble fraction (log2): 0.148

HMQGEASDAQLKAIFAIARKLGITDDFEVHRKASRLAGVPEPEVLPSLKSLTYAQASAVIKALQEELE
soluble fraction (log2): 0.084

HMTAGYFTRGSHQDEVLRIQGTPSGVNKYSDHEVWNYGLSSVDISLRDRRVTEWNNISGNLKV
soluble fraction (log2): -0.152

HMRDFLMDSTKNKLSKDQVQLSRIFLWFGNDFGSKAERLEFISRYSGMDFNQPKIDYLTYDWSLNQ
soluble fraction (log2): 0.278

HMGNNKLVLSLAVALKNTPNFLKNYNYKISKDKKFIEILLSKQINEVSDIIINLKKNNINIVDLNIKKR
soluble fraction (log2): -1.51

HMSGENAVLTEGTMVTVRRGGETITATARKETVKQFLSRMDIIPGSREMVGIELMENSVMLTISD
soluble fraction (log2): -0.227

HMYKMKDRIKKIMEMQRTTQQDFADQLKIAPATLSSIFTGRTRPTLAIVDAIKSRFPQISTDWLMFGKGDM
soluble fraction (log2): -0.219

HMSVKIELNENEQAIFTAVQKVNEAVLPELRAQFSDMSNKAWDNSVKMLTKNNLLKVSKEGEILYIRM
soluble fraction (log2): -0.567

HMSFRYLHVKRQLMSLIGTMNAHERLPSRTDLSETFQVARTTIERAISELIGEGWLYARDGSGTYVAER
soluble fraction (log2): -1.66

HMVDKSYIHNQQVASDTWTVQHNLGKYPAVSVADTGNNEVYGDVRHINENTVELKFSHPFSGVAFF
soluble fraction (log2): 0.281

HMTKLTPLEVNLYAKKLANDPEFGSKHIEPGESFSQAEERLRVQLSQQEYVQKYSKYLKKLKASA
soluble fraction (log2): 0.0851

HMREELIALYRAIARLSEDEQELLNLFYFARRPLSEIAQLTGMTPGAAKTRLYRARRHLRREMEEDGYG
soluble fraction (log2): -0.986

HMSLDLNENEKTIFDIIQNKKTIRLSELKIEAGLSNKGWDKAMKSLTKQGLAKVVKTEDQLTVKLL
soluble fraction (log2): -0.0993

HMKTTVEVSPIARPGAVASGSVKFGSGVTAEWMLDQYGRLGLDKPTGKPTEQDIKEFQIELQKAL
soluble fraction (log2): 0.165

HMQTKEVDYGTFMSMIDEKNIGTVEIGDSQIVFTDKDNKNLYETGVMNDPDLAQRLHDAGATFSS
soluble fraction (log2): 0.201

HMLVSVSNYLGQNVDTVKSDLEALGLVVKLKEQQTDRESENGAVLEQSIEGGSKVSAGTPITLTYGK
soluble fraction (log2): 0.187

HMGVDMAPESIVGKKGVAATELRPAGKVEIHGQVYDAVSVGMFIKRGTGVKVVRYEAAQIYVEPE
soluble fraction (log2): 0.146

HMANWRVGQTINALVSDRMPSGGLLLTVGRQSFVTTRDIPVQPGARIMLEVQQVEPKLVLRLVSA
soluble fraction (log2): -1.17
